# Measured values reported in patent US20230052646A1 (JJP BIOLOGICS SP Z O O, published 2023).
# Where a chain is given by its changes, count along the chain named. Numbers in names are those of the source.
# T1: membrane-bound full-length human HVEM on stable HVEM-transfected HEK293F cells (clone no. 128) (human, UniProt Q92956 39-283)
# T1 construct: The same cDNA was also expressed on Sf9 insect cells; also called TNFRSF14; CD270
# T1 sequence: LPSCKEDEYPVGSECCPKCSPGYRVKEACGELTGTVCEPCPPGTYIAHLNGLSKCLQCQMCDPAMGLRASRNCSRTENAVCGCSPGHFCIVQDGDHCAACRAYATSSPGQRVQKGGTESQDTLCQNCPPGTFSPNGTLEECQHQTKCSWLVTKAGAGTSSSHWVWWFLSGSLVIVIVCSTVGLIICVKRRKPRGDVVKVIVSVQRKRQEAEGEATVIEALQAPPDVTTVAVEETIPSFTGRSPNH
# B1: chimeric mouse/human IgG4/kappa anti-human HVEM antibody no. 45H6 (antibody, V domains shown)
# VH: DVQLVESGGGLVQPGGSRKLSCAASGFTFSSFGMHWVRQAPEKGLEWVAYISSGNSNIYYVDTVKGRFTISRDNPKNTLFLQMTSLRSEDTAMYYCARKRAYGDYSGFSMDYWGQGTSVTVSS
# VL: DIVMTQSQKFMSTSVGDRVSVTCKASQNVDTNVAWYQQKPGQSPKALIYSASYRYSGVPDRFTGSGSGTDFTLTISNVQSEDLAEYFCQQYNKFPLTFGGGTKLEIKR
# notes: 24/25 within the entry; Stabilized human IgG4 (S239P) already in the entry; also called chimeric 45H6
# B2: chimeric mouse/human IgG4/kappa anti-human HVEM antibody no. 49G4 (antibody, V domains shown)
# VH: EVQLQQSGAELVKPGASVKLSCRASGFNIKDTYMHWVKQRPEQGLEWIGRIDPARGNTKYDPKFQGKATITADTSSNTAYLQLSSLTSEDTAVYYCASAMDYWGQGTSVTVSS
# VL: DVLMTQTPLSLPVSLGDQASISCRSSQSIVHSNGNTYLEWFLQKPGQSPKLLIYKVSNRFSGVPDRFSGSGSGTDFTLKISRVEAEDLGVYYCFQGSHVPLTFGAGTKLELKR
# notes: 48/49 within the entry; Stabilized human IgG4 (S239P) already in the entry; also called chimeric 49G4
# B3: chimeric mouse/human IgG4/kappa anti-human HVEM antibody no. 36H12 (antibody, V domains shown)
# VH: EVQLQQSGAGLVKPGASVKLSCTASGFNIKDTYMHWVRQRPEQGLEWIGRIDPATANTKYDPKFQGKATLTTDTSSNTAYLQLSSLTSEDTAVYYCVTYGYDVSWFAYWGLGALVTVSA
# VL: B2 VL with N35I, F41Y
# notes: 16/17 within the entry; Stabilized human IgG4 (S239P) already in the entry; also called chimeric 36H12
# Experiments:
# [1] = target: membrane-bound human HVEM on Promega bioassay cells (NFκB-RE-luc human HVEM HEK293 reporter cells; CHO-K1 Activator cells) (human) (UniProt Q92956); test: cell-based or functional assay
# [2] = target: membrane-bound full-length human HVEM on stable HVEM-transfected HEK293F cells (clone no. 128) (human) (UniProt Q92956); test: flow cytometry, 1:20, HEK293F clone no. 128
# [3] = target: membrane-bound human HVEM on Promega bioassay cells (NFκB-RE-luc human HVEM HEK293 reporter cells; CHO-K1 Activator cells) (human) (UniProt Q92956); test: flow cytometry, 1:20, NFκB-RE-luc HVEM reporter cells
# [4] = target: T1, membrane-bound full-length human HVEM …; test: FACS, his-LIGHT pre-bound, then Ab 20 µg/mL
# Description: Generation of human ‘full-length’ HVEM-transfected HEK293F cells (clone no. 128) is described in Example 1a. Displacement of pre-bound soluble human BTLA, soluble human CD160, soluble human LIGHT, and soluble human TNFβ from surface human HVEM-transfected cells was analysed by FACS analysis. To this end, stable human full-length HVEM-transfected HEK293F cells were put at 10×10⁶ cells/mL in ice-chilled phosphate-buffered saline containing 0.1% BSA (Sigma)/0.05% NaN₃ (PBS/BSA/NaN₃) supplemented with 50 μg/mL human IgGs (blocking possible Fcγ receptors; Sigma) for 10 minutes at 4° C. Then, 10 μL/tube (i.e., 0.1×10⁶ cells) of these cells were incubated without or with 50 μL soluble biotinylated human BTLA-human Fcγ fusion protein (Sino Biological Inc) at 2 μg/mL/tube, with soluble his-tagged human CD160 (Sino Biological Inc) at 20 μg/mL/tube, with soluble his-tagged human LIGHT (Sino Biological Inc) at 2 μg/mL/tube, or with soluble biotinylated human TNFβ (Sino Biological Inc) at 0.2 μg/mL/tube in PBS/BSA/NaN₃ for 30 minutes at 4° C. After this (i.e., without washing), cells were subsequently incubated with 50 μL purified chimeric mouse/human anti-HVEM antibody at 20 μg/mL/tube or a human IgG4/κ (Sigma) negative isotype control at 20 μg/mL/tube for 30 minutes at 4° C. After extensive washing in PBS/BSA/NaN₃, cells were incubated with 1:200 diluted PE-conjugated streptavidin (detection BTLA and TNFβ; Jackson ImmunoResearch) or with biotinylated mouse anti-his antibody (detection CD160 and LIGHT; R&D Systems) at 10 μg/mL for 30 minutes at 4° C. […] Residual binding of ligands BTLA, CD160, LIGHT and TNFβ on membrane human HVEM was measured using a flow cytometer (model FACSCalibur; BD Biosciences).
# [5] = target: T1, membrane-bound full-length human HVEM …; test: FACS titration on HVEM-HEK293F, half-maximum binding
# Description: In order to determine the relative binding affinity of purified BTLA/HVEM blocking chimeric mouse/human anti-human HVEM antibodies no. 36H12, 45H6, 48H6, 11H7, and 49G4 for human HVEM, FACS analysis was used.
# To this end, stable human full-length HVEM-transfected HEK293F cells (clone no. 128; see Example 1(a) above) were put at 10×10⁶ cells/mL in ice-chilled PBS containing 0.1% BSA (Sigma)/0.05% NaN₃ (PBS/BSA/NaN₃) supplemented with 50 μg/mL human IgGs (blocking possible Fcγ receptors; Sigma) for 10 minutes at 4° C. Then, 10 μL/tube (i.e., 0.1×10⁶ cells) of these cells were incubated with or without 100 μL titrated (in PBS/BSA/NaN₃) purified BTLA/HVEM blocking chimeric mouse/human anti-human HVEM antibody/tube for 30 minutes at 4° C. After extensive washing in PBS/BSA/NaN₃, cells were subsequently incubated with 1:200 diluted PE-conjugated goat anti-human IgG Fcγ-specific antibodies (Jackson ImmunoResearch) for 30 minutes at 4° C. After extensive washing in PBS/BSA/NaN₃, cells were fixed in 4% formaldehyde in PBS/BSA/NaN₃ for 30 minutes at 4° C. Binding (geo-mean fluorescence intensity) of chimeric mouse/human anti-human HVEM antibodies no. 36H12, 45H6, 48H6, 11H7, and 49G4 on membrane human HVEM was measured using a flow cytometer (FACSCalibur; BD Biosciences). For comparison, purified BTLA/HVEM blocking mouse anti-human HVEM antibody counterparts no. 36H12, 45H6, 48H6, 11H7, and 49G4 were run in parallel, and their binding was monitored as described in Example 2 (a).
# [6] = target: T1, membrane-bound full-length human HVEM …; test: FACS, biotinylated TNFβ pre-bound, then Ab 20 µg/mL
# Description: (§1) Generation of human ‘full-length’ HVEM-transfected HEK293F cells (clone no. 128) is described in Example 1a. Displacement of pre-bound soluble human BTLA, soluble human CD160, soluble human LIGHT, and soluble human TNFβ from surface human HVEM-transfected cells was analysed by FACS analysis. To this end, stable human full-length HVEM-transfected HEK293F cells were put at 10×10⁶ cells/mL in ice-chilled phosphate-buffered saline containing 0.1% BSA (Sigma)/0.05% NaN₃ (PBS/BSA/NaN₃) supplemented with 50 μg/mL human IgGs (blocking possible Fcγ receptors; Sigma) for 10 minutes at 4° C. Then, 10 μL/tube (i.e., 0.1×10⁶ cells) of these cells were incubated without or with 50 μL soluble biotinylated human BTLA-human Fcγ fusion protein (Sino Biological Inc) at 2 μg/mL/tube, with soluble his-tagged human CD160 (Sino Biological Inc) at 20 μg/mL/tube, with soluble his-tagged human LIGHT (Sino Biological Inc) at 2 μg/mL/tube, or with soluble biotinylated human TNFβ (Sino Biological Inc) at 0.2 μg/mL/tube in PBS/BSA/NaN₃ for 30 minutes at 4° C. After this (i.e., without washing), cells were subsequently incubated with 50 μL purified chimeric mouse/human anti-HVEM antibody at 20 μg/mL/tube or a human IgG4/κ (Sigma) negative isotype control at 20 μg/mL/tube for 30 minutes at 4° C. […] After extensive washing in PBS/BSA/NaN₃, cells were incubated with 1:200 diluted PE-conjugated streptavidin (detection CD160 and LIGHT; Jackson ImmunoResearch) for 30 minutes at 4° C. After extensive washing in PBS/BSA/NaN₃, cells were fixed in 4% formaldehyde in PBS/BSA/NaN₃ for 30 minutes at 4° C. Residual binding of ligands BTLA, CD160, LIGHT and TNFβ on membrane human HVEM was measured using a flow cytometer (model FACSCalibur; BD Biosciences).
# [7] = target: T1, membrane-bound full-length human HVEM …; test: FACS, biotinylated BTLA-Fc pre-bound, then Ab 20 µg/mL
# Description: as §1
# [8] = target: T1, membrane-bound full-length human HVEM …; test: FACS, Ab 10 µg/mL then biotinylated BTLA on HVEM-HEK293F
# Description: (§2) Generation of human ‘full-length’ HVEM-transfected HEK293F cells (clone no. 128) is described in Example 1a. Binding of soluble human BTLA, of soluble human CD160, of soluble human LIGHT, and of soluble human TNFβ on surface human HVEM-transfected cells was analysed by FACS analysis. To this end, stable human full-length HVEM-transfected HEK293F cells were put at 10×10⁶ cells/mL in ice-chilled phosphate-buffered saline containing 0.1% BSA (Sigma)/0.05% NaN₃ (PBS/BSA/NaN₃) supplemented with 50 μg/mL human IgGs (blocking possible Fcγ receptors; Sigma) for 10 minutes at 4° C. Then, 10 μL/tube (i.e., 0.1×10⁶ cells) of these cells were incubated with or without 100 μL purified chimeric mouse/human anti-HVEM antibody at 10 μg/mL/tube or a human IgG4/κ (Sigma) negative isotype control at 10 μg/mL/tube for 30 minutes at 4° C. After this (i.e., without washing), cells were subsequently incubated with 1 μg/mL soluble biotinylated human BTLA (Sino Biological Inc), with 10 μg/mL soluble his-tagged human CD160 (Sino Biological Inc), with 1 μg/mL soluble his-tagged human LIGHT (Sino Biological Inc), or with 0.1 μg/mL soluble biotinylated human TNFβ (Sino Biological Inc) in PBS/BSA/NaN₃ for 30 minutes at 4° C. After extensive washing in PBS/BSA/NaN₃, cells were incubated with 1:200 diluted PE-conjugated streptavidin (detection BTLA and TNFβ; Jackson ImmunoResearch) or with biotinylated mouse anti-his antibody (detection CD160 and LIGHT; R&D Systems) at 10 μg/mL for 30 minutes at 4° C. After extensive washing in PBS/BSA/NaN₃, cells were incubated with 1:200 diluted PE-conjugated streptavidin (detection CD160 and LIGHT; Jackson ImmunoResearch) for 30 minutes at 4° C. After extensive washing in PBS/BSA/NaN₃, cells were fixed in 4% formaldehyde in PBS/BSA/NaN₃ for 30 minutes at 4° C. Binding of ligands BTLA, CD160, LIGHT and TNFβ on membrane human HVEM was measured using a flow cytometer (model FACSCalibur; BD Biosciences). For comparison, purified BTLA/HVEM blocking mouse anti-human HVEM antibody counterparts no. 36H12, 45H6, 48H6, 11H7, and 49G4 at 10 μg/mL/tube and a mouse IgG1 (BD Biosciences) negative isotype control at 10 μg/mL/tube were run in parallel.
# [9] = target: T1, membrane-bound full-length human HVEM …; test: FACS, Ab 10 µg/mL then biotinylated TNFβ on HVEM-HEK293F
# Description: as §2
Molecule,EC80 of LIGHT-induced NFκB-RE-luc activation [1] [µg/mL],signal to noise ratio [2],signal to noise ratio [3],% displacement of pre-bound ligand [4] [%],EC50 [5] [µg/mL],% displacement of pre-bound ligand [6] [%],% displacement of pre-bound ligand [7] [%],% blocking of ligand binding [8] [%],% blocking of ligand binding [9] [%]
soluble his-tagged human LIGHT (R&D Systems) (ligand),0.3,,,,,,,,
phycoerythrin (PE)-conjugated mouse anti-human HVEM antibody (clone eBioHVEM-122; eBioscience),,1000,< 5,,,,,,
B1,,,,< 20,0.306,> 90,> 95,> 95,> 94
B2,,,,< 20,0.312,> 55,> 95,> 95,> 80
B3,,,,< 20,0.433,> 90,> 95,> 95,> 94
